Measured values published in article PMC3166142, “Direct Inhibition of TNF-α Promoter Activity by Fanconi Anemia Protein FANCD2”.

Target: FANCD2 (Homo sapiens, UniProt Q9BXW9 1-1451)
Experiment: EMSA; 200 ng protein; 20 mM HEPES pH 7.6, 5 mM EDTA, 1 mM DTT, 150 mM KCl, 50 mM (NH4)2SO4, 1% Tween-20; 20 min, room temperature; native 4% PAGE
Settings: protein: recombinant; tags: His6 removed by thrombin; label: 32P; blunt (duplex implied; only one strand printed for EMSA)

Chain of FANCD2 (Q9BXW9 whole entry): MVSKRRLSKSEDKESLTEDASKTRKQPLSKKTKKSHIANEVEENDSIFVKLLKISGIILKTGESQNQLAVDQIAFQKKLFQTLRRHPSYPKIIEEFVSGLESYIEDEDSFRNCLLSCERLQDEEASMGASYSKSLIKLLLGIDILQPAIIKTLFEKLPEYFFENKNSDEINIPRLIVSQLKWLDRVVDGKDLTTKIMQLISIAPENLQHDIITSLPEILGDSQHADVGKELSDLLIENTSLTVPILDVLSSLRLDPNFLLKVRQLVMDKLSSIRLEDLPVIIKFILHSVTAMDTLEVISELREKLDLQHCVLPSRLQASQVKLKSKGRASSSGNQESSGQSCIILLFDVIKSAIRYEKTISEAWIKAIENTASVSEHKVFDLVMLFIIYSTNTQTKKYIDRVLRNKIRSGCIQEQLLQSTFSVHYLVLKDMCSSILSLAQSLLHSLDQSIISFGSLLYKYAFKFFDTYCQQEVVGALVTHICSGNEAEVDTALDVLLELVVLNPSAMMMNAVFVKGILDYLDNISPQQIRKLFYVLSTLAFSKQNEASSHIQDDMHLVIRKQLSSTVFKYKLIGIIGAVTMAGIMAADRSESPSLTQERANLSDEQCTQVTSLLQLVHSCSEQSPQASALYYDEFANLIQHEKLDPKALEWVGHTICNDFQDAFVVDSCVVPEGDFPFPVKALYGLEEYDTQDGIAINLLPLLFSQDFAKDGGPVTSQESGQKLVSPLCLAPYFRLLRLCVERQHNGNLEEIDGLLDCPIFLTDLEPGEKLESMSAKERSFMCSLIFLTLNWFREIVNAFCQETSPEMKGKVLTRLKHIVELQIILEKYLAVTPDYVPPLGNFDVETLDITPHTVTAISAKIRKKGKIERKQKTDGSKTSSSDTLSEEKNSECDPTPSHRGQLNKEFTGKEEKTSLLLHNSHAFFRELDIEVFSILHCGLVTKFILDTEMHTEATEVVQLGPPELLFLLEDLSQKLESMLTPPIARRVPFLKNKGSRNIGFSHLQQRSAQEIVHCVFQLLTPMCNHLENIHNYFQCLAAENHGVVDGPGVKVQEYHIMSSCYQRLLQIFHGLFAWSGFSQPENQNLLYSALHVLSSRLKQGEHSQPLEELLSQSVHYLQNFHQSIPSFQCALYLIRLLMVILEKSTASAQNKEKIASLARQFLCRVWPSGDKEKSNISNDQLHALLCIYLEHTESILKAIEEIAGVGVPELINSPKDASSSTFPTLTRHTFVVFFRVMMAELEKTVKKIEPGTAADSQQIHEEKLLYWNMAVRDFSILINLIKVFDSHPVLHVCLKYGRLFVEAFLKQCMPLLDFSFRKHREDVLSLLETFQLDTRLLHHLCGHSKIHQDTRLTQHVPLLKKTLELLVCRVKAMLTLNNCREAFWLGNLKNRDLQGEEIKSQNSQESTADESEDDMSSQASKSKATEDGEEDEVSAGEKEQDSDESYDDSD

B1: kB1 (dsDNA)
DNA 1: GAGTATGGGGACCCCCCCTTAA
DNA 2: TTAAGGGGGGGTCCCCATACTC
B1: binds.
